Assay results published in patent US20110230406A1 (ADVANCED TECHNOLOGIES AND REGENERATIVE MEDICINE, published 2011).
No end group written: not given here.

B1: phage displaying the peptide of SEQ ID NO: 1 on the pIX minor coat protein (peptide)
peptide: AGLPLQSMSRLSYDSLS
modifications: also: displayed on phage pIX minor coat protein, junction not given here
notes: not shown: pIX minor coat protein of the phage that carries the peptide
B2: phage displaying the peptide of SEQ ID NO: 10 on the pIX minor coat protein (peptide)
peptide: AGLQCSPPLPLYCEP
modifications: cysteine pairing not given here; also: displayed on phage pIX minor coat protein
notes: as for B1
B3: phage displaying the peptide of SEQ ID NO: 11 on the pIX minor coat protein (peptide)
peptide: AGPRCPPMHFSVCLS
modifications: cysteine pairing not given here; also: displayed on phage pIX minor coat protein
notes: as for B1
B4: phage displaying the peptide of SEQ ID NO: 12 on the pIX minor coat protein (peptide)
peptide: AGASCSPGLHPLCPG
modifications: cysteine pairing not given here; also: displayed on phage pIX minor coat protein
notes: as for B1
B5: phage displaying the peptide of SEQ ID NO: 13 on the pIX minor coat protein (peptide)
peptide: AGSTCIPSMTPLCPS
modifications: cysteine pairing not given here; also: displayed on phage pIX minor coat protein
notes: as for B1
B6: phage displaying the peptide of SEQ ID NO: 14 on the pIX minor coat protein (peptide)
peptide: AGRECLPQFGLPLCPD
modifications: cysteine pairing not given here; also: displayed on phage pIX minor coat protein
notes: as for B1
B7: phage displaying the peptide of SEQ ID NO: 15 on the pIX minor coat protein (peptide)
peptide: AGSVCLAQYSATPLCPH
modifications: cysteine pairing not given here; also: displayed on phage pIX minor coat protein
notes: as for B1
B8: phage displaying the peptide of SEQ ID NO: 16 on the pIX minor coat protein (peptide)
peptide: AGPDCRLSPLQPAVCVW
modifications: cysteine pairing not given here; also: displayed on phage pIX minor coat protein
notes: as for B1
B9: phage displaying the peptide of SEQ ID NO: 17 on the pIX minor coat protein (peptide)
peptide: AGAHCLRDHMGLTSCIP
modifications: cysteine pairing not given here; also: displayed on phage pIX minor coat protein
notes: as for B1
B10: phage displaying the peptide of SEQ ID NO: 18 on the pIX minor coat protein (peptide)
peptide: AGRLCHATVDGVAVGCLT
modifications: cysteine pairing not given here; also: displayed on phage pIX minor coat protein
notes: as for B1
B11: phage displaying the peptide of SEQ ID NO: 19 on the pIX minor coat protein (peptide)
peptide: AGTVCPPDLTGLTAACYY
modifications: cysteine pairing not given here; also: displayed on phage pIX minor coat protein
notes: as for B1
B12: phage displaying the peptide of SEQ ID NO: 2 on the pIX minor coat protein (peptide)
peptide: AGPPGPYIAASAFLALK
modifications: also: displayed on phage pIX minor coat protein, junction not given here
notes: as for B1
B13: phage displaying the peptide of SEQ ID NO: 20 on the pIX minor coat protein (peptide)
peptide: AGTLCGVDDYTGLTGCLA
modifications: cysteine pairing not given here; also: displayed on phage pIX minor coat protein
notes: as for B1
B14: phage displaying the peptide of SEQ ID NO: 21 on the pIX minor coat protein (peptide)
peptide: AGIRCPVDAIGLTANCSY
modifications: cysteine pairing not given here; also: displayed on phage pIX minor coat protein
notes: as for B1
B15: phage displaying the peptide of SEQ ID NO: 22 on the pIX minor coat protein (peptide)
peptide: AGRSCYREPSTMLYACTA
modifications: cysteine pairing not given here; also: displayed on phage pIX minor coat protein
notes: as for B1
B16: phage displaying the peptide of SEQ ID NO: 5 on the pIX minor coat protein (peptide)
peptide: AGYRRPIQPGPEAVSLL
modifications: also: displayed on phage pIX minor coat protein, junction not given here
notes: as for B1
B17: phage displaying the peptide of SEQ ID NO: 8 on the pIX minor coat protein (peptide)
peptide: AGSWCTHPAIGCLS
modifications: cysteine pairing not given here; also: displayed on phage pIX minor coat protein
notes: as for B1
B18: phage displaying the peptide of SEQ ID NO: 9 on the pIX minor coat protein (peptide)
peptide: AGSPCSPGQLPLCPA
modifications: cysteine pairing not given here; also: displayed on phage pIX minor coat protein
notes: as for B1
B19: phage displaying the peptide of SEQ ID NO: 6 on the pIX minor coat protein (peptide)
peptide: AGRDSFNLLTSSPLPST
modifications: also: displayed on phage pIX minor coat protein, junction not given here
notes: as for B1

How the values were obtained:
[1] = biological target: T1, human serum albumin (human, UniProt P02768 25-609); assay: phage ELISA, HSA-coated wells, HRP anti-M13 antibody, luminescence
T1 construct: Cross-reactivity control coated at 5 micrograms/mL; also called HSA
Experimental: 96-well black ELISA plates were coated with streptavidin (Rows A through D), hIgG (Rows E and F) and human serum albumin (Rows G and H), at a concentration of 5 micrograms/mL in PBS. Plates were incubated overnight at 4° C. Plates were washed 3 times with TBST using a plate washer. To the streptavidin-coated wells in rows C and D, 100 microliters of a 4 micrograms/mL solution of biotinylated-BMP-2 (R&D Systems, Minneapolis, Minn., Item number 355-BM/CF), was introduced and allowed to sit at room temperature for 30 minutes. To all other wells, 100 microliters of PBS was introduced. The plates were again washed 3 times with TBST using the plate washer. The wells were then blocked with 250 microliters of a 3% dehydrated milk suspension in TBST and allowed to sit at room temperature for a minimum of 1 hour. Using phage concentrations determined by the phage titrations, dilutions of the phage stock solutions were performed in a separate 96-well plate to result in phage concentrations of 10¹⁰, 10⁹, 10⁸, 10⁷, 10⁶ and 10⁵ phage/well. After blocking, the ELISA plate was washed 3 times with TBST and 100 microliters of the phage dilutions were introduced to the respective ELISA plates and allowed to sit at room temperature for a minimum of 1 hour. The ELISA plate was again washed 3 times with TBST using the plate washer and 100 microliters of an HRP-conjugated Anti-M13 Phage Mab (1:5000 dilution in PBS) was introduced to each well. The plates were allowed to sit at room temperature for 1 hour after which time the plates were washed 3 times with TBST. Next, a POD HRP-substrate was introduced to each well. The luminescence was read using a luminometer set with a gain of 150.

[2] = biological target: T2, biotinylated BMP-2 (R&D Systems, Item number 355-BM/CF) (human, UniProt P12643 283-396, biotinylated (sites not given)); assay: phage ELISA, biotinylated BMP-2 captured on streptavidin-coated wells, HRP anti-M13 antibody, luminescence
T2 construct: Bought protein, biotinylated, captured on streptavidin plates (phage ELISA) or streptavidin donor beads (ALPHA); also called bone morphogenic protein-2
T2 sequence (P12643 283-396 limits assumed): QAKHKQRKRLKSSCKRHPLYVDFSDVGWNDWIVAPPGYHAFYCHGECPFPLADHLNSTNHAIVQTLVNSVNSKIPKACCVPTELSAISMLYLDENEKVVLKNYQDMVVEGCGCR

Row | Binder | binding result [1] | binding result [2]
1 | B1 | no binding (tested: 10^9 phage/mL) | binds
2 | B2 | no binding (tested: 10^9 phage/mL) | binds
3 | B3 | no binding (tested: 10^9 phage/mL) | binds
4 | B4 | no binding (tested: 10^9 phage/mL) | binds
5 | B5 | no binding (tested: 10^9 phage/mL) | binds
6 | B6 | no binding (tested: 10^9 phage/mL) | binds
7 | B7 | no binding (tested: 10^9 phage/mL) | binds
8 | B8 | no binding (tested: 10^9 phage/mL) | binds
9 | B9 | no binding (tested: 10^9 phage/mL) | binds
10 | B10 | no binding (tested: 10^9 phage/mL) | binds
11 | B11 | no binding (tested: 10^9 phage/mL) | binds
12 | B12 | no binding (tested: 10^9 phage/mL) | binds
13 | B13 | no binding (tested: 10^9 phage/mL) | binds
14 | B14 | no binding (tested: 10^9 phage/mL) | binds
15 | B15 | no binding (tested: 10^9 phage/mL) | binds
16 | B16 | no binding (tested: 10^9 phage/mL) | binds
17 | B17 | no binding (tested: 10^9 phage/mL) | binds
18 | B18 | no binding (tested: 10^9 phage/mL) | binds
19 | B19 | no binding (tested: 10^9 phage/mL) | 
